The target in the experiment is single-chain H2B-H2A.Z (human). The experiment is described as follows: crystal structure.

B1: Peptide SRCAP_(531-560) (peptide)
peptide: SEDAQSQSQADEEEEDDDFGVEYLLARDEE
In the case of B1, the binding result is given as “binds”.
